According to article PMC3879576:

How the values were obtained:
[1] = molecular target: Bet v 1a Y5C mutant (birch) (UniProt P15494); experiment: not stated; analysis of purified Bet v 1a Y5C; method of the analysis not named; similar redox sensitivity as the dimer of the WT preparation
[2] = molecular target: Bet v 1a Y5C mutant (birch) (UniProt P15494); experiment: SEC; Superdex 75 size exclusion chromatography (gel filtration) separating monomeric and dimeric forms
[3] = molecular target: dimeric Bet v 1a purified from the WT Bet v 1a preparation, with cysteine incorporated at position 5 instead of the encoded tyrosine (birch) (UniProt P15494); experiment: as above

percent dimerization [1]	stoichiometry N [2]	stoichiometry N [3]	Substance
90%	2		Bet v 1a Y5C mutant (from UniProt P15494 1-160) (natural protein)
		2	dimeric Bet v 1a purified from the WT Bet v 1a preparation, with cysteine incorporated at position 5 instead of the encoded tyrosine (from UniProt P15494 1-160) (natural protein)
